Reference: publication PMC2119935

Target: F-actin (polymerised rabbit skeletal muscle actin) (rabbit) (UniProt P68135)
Experiment: co-sedimentation

Kd: 18 µM
Substance: GST-ΔFok fusion protein (c-Abl type IV amino acids 1015-1142 fused to GST) (domain or fragment)
